The target of the data set is UAP56 (UniProt Q13838 1-428). Nature of the data set: pull-down (NeutrAvidin beads, RNA unclamping assay); ATP, 2 mM Mg2+; clamped UAP56-ADP-Pi-RNA complex, no release factor; RNA unclamping: 20 mM HEPES pH 7.9, 40 mM KCl, 2 mM MgCl2, 5% glycerol, 0.1% Igepal CA-630, 1 mM ATP at loading, room temperature, 500 mM KCl wash; cryo-EM: 25. The conditions noted are these: protein: recombinant; tags: 10xHis-3C (N-term); single strand.
UAP56, sequence (Q13838 whole entry): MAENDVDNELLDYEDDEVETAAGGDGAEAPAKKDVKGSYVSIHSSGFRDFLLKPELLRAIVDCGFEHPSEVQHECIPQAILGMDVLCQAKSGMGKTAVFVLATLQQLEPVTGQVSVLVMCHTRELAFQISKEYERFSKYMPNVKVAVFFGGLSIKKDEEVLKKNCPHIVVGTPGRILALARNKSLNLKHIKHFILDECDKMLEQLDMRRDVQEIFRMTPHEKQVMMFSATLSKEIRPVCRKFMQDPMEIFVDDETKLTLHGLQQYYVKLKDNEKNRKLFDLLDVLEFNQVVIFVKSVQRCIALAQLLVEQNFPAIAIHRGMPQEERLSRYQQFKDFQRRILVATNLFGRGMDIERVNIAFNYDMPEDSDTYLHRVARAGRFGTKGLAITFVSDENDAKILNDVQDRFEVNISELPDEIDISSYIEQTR

In the case of UUUUUUUUUUUUUUU (ssRNA) [biotinylated 15U RNA], the binding result was “binds”.

The values above are taken from PMC13391367.
